Measurements: US12636342B2, “TARS derived from Akkermansia muciniphila or fragment thereof, and use thereof” (KOREA RESEARCH INSTITUTE OF BIOSCIENCE AND BIOTECHNOLOGY, priority 2020, dated 2026)
Entries after “also recorded” stand apart in the source; their conditions may differ.

What was measured:
[1] = test system: mouse bone marrow-derived macrophages (BMDMs); experiment: ELISA of immune cytokine secretion in LPS-treated BMDMs (inflammatory environment); type: cell-based; details: LPS-induced inflammatory environment, 24 h
Procedure: To determine whether AmTARS affects immune cytokine secretion when cellular inflammation was induced, mouse bone marrow-derived macrophages BMDMs as mouse-derived immune cells and human macrophages THP1 as human-derived immune cells were cultured by way of the same method as in Example 2.
Specifically, the cultured BMDMs and THP1 were treated with lipopolysaccharide (LPS) to induce an inflammatory response and were simultaneously treated with AmTARS at 0.1 μM, 0.2 μM, and 0.5 μM for 24 h to obtain cell cultures. The obtained cell cultures were analyzed for immune cytokine secretion by way of the same method as in Example 2.
Next, BMDMs were treated with LPS to create an inflammatory environment by way of the same method as in Example 3, and then treated with each TARS (AmTARS, BfTARS, eTARS, and hTARS) to investigate the secretion of IL-10.
An inflammatory environment was created through LPS in BMDMs by way of the same method as in Example 3, and then the cells were treated with the four types of fragments, and the immune cytokine secretion was determined by ELISA.

[2] = test system: macrophage-depleted colitis mice; experiment: DSS-induced colitis in macrophage-depleted (Clodrosome) mice; type: in vivo, mouse
Procedure: To further validate the macrophage-dependent function of AmTARS in improving colitis, we investigated the anti-inflammatory effects of AmTARS in macrophage-depleted colitis mice.
A macrophage-deficient mice were prepared by administration of Clodrosome (administered at a concentration of 200 μL/animal to the abdominal cavity of mice a total of three times on Days 1, 5, and 8), and then the anti-inflammatory efficacy experiment was conducted by way of the same method as in Example 5. Normal mice injected with Encapsome were used as a control.

BMDMs = experiment: M2 macrophage polarization in BMDMs (CD206 flow cytometry); type: cell-based, mouse
Procedure: Since M2 macrophage polarization precedes production of anti-inflammatory cytokines such as IL-10, we assessed the effects of AmTARS on macrophage polarization. BMDMs were treated with PBS (negative control), LPS (to induce M1 polarization), or IL-4/IL-13 (to induce M2 polarization [positive control]) in the absence and presence of AmTARS, and the resulting M2 macrophage population was measured by flow cytometry using an antibody specific for the M2 macrophage surface marker CD206.

B1: Akkermansia muciniphila-derived threonyl-tRNA synthetase (TARS) (protein)
chain: MSEHKERKTLEERQQMSDLERLRHSCAHVLATAICRLWPDAQLAGGPAVDNGFYYDVELDHRISTEDFERIEEEMKKVVKENQVFQKEVISRADAMKMAESGELGALGPRSEPSRFKIDLLNDIPEDEEISLYRNGDFTDLCAGPHVGRTGNCKAFKIMSVASAFYKGDKNRPMLQRIYGTCFPNRTQLDEHLERLEEARRRDHRKLGRELGLFCIDESVGQGLILWKPKGALIRRSLQDFITEELDKLGYSQVYTPNIGKLDLYRTSGHFPYYQESQYAPIPERDAMEKLSQEGASCAELFNGLATGTIEGYMLKPMNCPHHIKIYANDAHSYRDLPVRLAEFGTVYRWEQSGELGGMTRVRGFTQDDAHIFCTPDQLAGEIRQCLGIVKTIFGTLGMTDYRVRLSMRDPESDKYVGSPENWDKAEQALREAAEWLGADYSEEAGEAAFYGPKIDFIVRDAIGREWQLGTVQVDYNLPERFDLHYTGADNKPHRPVMVHRAPFGSMERFTGLLIEHFEGKFPTWLSPEQVRVLPISDKVTDVAAAHRTALAARGVRVTVDETPDKIGAKIRNARLDRVPYMLVLGQREAEDGTVSVRHRDKGDLGAMPFEQFADLVAREIAERHISPVI
modifications: Akkermansia muciniphila TARS
secretion of IL-6 [1]: suppressed; also recorded: reduced in a dose-dependent manner
secretion of IL-10 [1]: increased IL-10 levels; also recorded: increased in a dose-dependent manner; also recorded: increased in a protein concentration-dependent manner
secretion of TNF-α [1]: suppressed; also recorded: reduced in a dose-dependent manner
colitis-induced body weight loss [2]: no effect
damage score [2]: no effect
disease activity score [2]: no effect
disruption of the epithelial lining [2]: no effect
numbers of IL-10-positive macrophages [2]: did not affect
numbers of inflammatory monocytes [2]: did not affect
shortening of the intestine [2]: no effect
M2 polarization (CD206+) (BMDMs; LPS-treated BMDMs (M1 polarization)): significantly re-polarized LPS-induced M1 macrophages to M2 macrophages
M2 polarization (CD206+) (BMDMs; PBS-treated BMDMs): activated M2 polarization
